# Assay results as given in patent US20220010004A1 (published 2022).
# T1: tau peptide 301-330 (human)
# T1 construct: Synthetic; Built from 2N4R numbering
# T1 peptide: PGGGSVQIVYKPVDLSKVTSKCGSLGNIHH
# T2: tau peptide 240-270 (human)
# T2 construct: Synthetic; Built from 2N4R numbering
# T2 peptide: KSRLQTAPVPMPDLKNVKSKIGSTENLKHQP
# T3: tau peptide 270-300 (human)
# T3 construct: Synthetic; Built from 2N4R numbering
# T3 peptide: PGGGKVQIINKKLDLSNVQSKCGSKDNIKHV
# B1: peptide NIKAVPGGGS (peptide)
# peptide: NIKAVPGGGS
# notes: Tau-derived peptide with histidine 299 changed to alanine
# B2: monoclonal antibody DC8E8 (antibody, mouse IgG1, V domains shown)
# VH: QVQLQQSGPELVKPGTSVKMPCKASGYIFTDYVISWVKQRTGQGLEWIGEIFPRSGSTYYNEKFKGKATLTADKSSNTAYMQLSSVTSEDSAVYFCARDYYGTSFAMDYWGQGTSVTVSS
# VL: DIVMSQSPSSLAVSAGEKVTMSCKSSQSLLNSRTRKNYLAWYQQKPGQSPKLLIYWASTRESGVPDRFTGSGSGTDFTLTISSVQAEDLAVYYCKQSFYLRTFGGGTKLDIK
# notes: Mouse IgG1 with kappa light chain, from hybridoma ATCC PTA-11994; also called mAb DC8E8
# Key:
# [1] = molecular target: B2; test: competition ELISA; competitor: coated tauΔ(1-150;392-441)/4R
# [2] = molecular target: B2; test: competition ELISA against coated tauΔ(1-150;392-441)/4R
# [3] = molecular target: T4, human full-length tau isoform 2N4R (human, UniProt P10636 1-758); test: SPR (Biacore), DC8E8 captured, tau injected
# T4 construct: Recombinant, E. coli; also called tau 2N4R; tau441
# Protocol: (§1) A BIACORE3000 instrument with a CMS sensor chip (Biacore AB, Uppsala) was used for the SPR assays. Amine-coupling reagents (EDC, NHS, ethanolamine pH 8.5), P20 detergent, and 10 mM sodium acetate pH 5.0 were obtained from Biacore AB. These experiments were done at 25° C. in PBS pH 7.4 with 0.005% of P20 (PBS-P) as the running buffer.
# (§2) Kinetic rate constants were approximated globally, maximal responses were fitted locally, and the bulk response was set to zero.
# tauΔ(1-150; 392-441)/4R = molecular target: T5, tauΔ(1-150; 392-441)/4R (human, UniProt P10636 468-708); test: SPR (Biacore), DC8E8 captured, tau injected
# T5 construct: Also the transgene of SHR72 rats; also called tau 151-391/4R; misdisordered tau
# Protocol: as §1, §2
# tau peptide 301-330 = molecular target: T1, tau peptide 301-330; test: ELISA, coated peptide (5 µg/ml), hybridoma supernate
# Protocol: (§3) Microtiter plates were coated overnight at 37° C. with either recombinant tau proteins or with tau peptides (5 μg/ml in PBS, 50 μl/well). […] Bound monoclonal antibody was detected with sheep anti-mouse Ig HRP-conjugated (DAKO). The reaction was developed with orthophenylenediamine Solution as a peroxidase substrate and stopped with 50 μl of 2 M H₂SO₄. Absorbance was measured at 492 nm using a Multiscan MCC/340 ELISA reader (Labsystems). Readouts with an absorbance value of at least twice the value of the negative controls (PBS) were considered positive.
# tau peptide 240-270 = molecular target: T2, tau peptide 240-270; test: as above
# Protocol: as §3
# tau peptide 270-300 = molecular target: T3, tau peptide 270-300; test: as above
# Protocol: as §3
# tauΔ222-427 = tauΔ222-427 (human, UniProt P10636 1-758); test: ELISA, coated tau (5 µg/ml), hybridoma supernate
# Protocol: as §3
# tauΔ300-312 = tauΔ300-312 (human, UniProt P10636 1-758); test: ELISA, coated tau (5 µg/ml), hybridoma supernate
# Protocol: as §3
# tauΔ306-400 = tauΔ306-400 (human, UniProt P10636 1-758); test: ELISA, coated tau (5 µg/ml), hybridoma supernate
# Protocol: as §3
# tauΔ228-441 = molecular target: T6, tauΔ228-441 (human, UniProt P10636 1-544); test: ELISA, coated tau (5 µg/ml), hybridoma supernate
# T6 construct: also called C-terminally truncated tau protein
# Protocol: as §3
# tauΔ137-441 = tauΔ137-441 (human, UniProt P10636 1-387); test: ELISA, coated tau (5 µg/ml), hybridoma supernate
# Protocol: as §3
# tauΔ257-400 = tauΔ257-400 (human, UniProt P10636 1-758); test: ELISA, coated tau (5 µg/ml), hybridoma supernate
# Protocol: as §3
# tauΔ283-441 = tauΔ283-441 (human, UniProt P10636 1-599); test: ELISA, coated tau (5 µg/ml), hybridoma supernate
# Sequence of tauΔ283-441 (P10636 other isoform, or with tags, fused parts or gaps mutant): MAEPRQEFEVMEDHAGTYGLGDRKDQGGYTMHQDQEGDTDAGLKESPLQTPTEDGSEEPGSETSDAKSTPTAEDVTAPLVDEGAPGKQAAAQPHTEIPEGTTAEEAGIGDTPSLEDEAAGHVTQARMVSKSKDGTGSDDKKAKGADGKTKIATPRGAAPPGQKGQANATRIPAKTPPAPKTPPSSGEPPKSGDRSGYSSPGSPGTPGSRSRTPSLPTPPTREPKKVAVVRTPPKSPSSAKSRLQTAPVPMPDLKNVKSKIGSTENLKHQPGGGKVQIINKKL
# Protocol: as §3
# Sequence of tauΔ257-400 (P10636 other isoform, or with tags, fused parts or gaps mutant): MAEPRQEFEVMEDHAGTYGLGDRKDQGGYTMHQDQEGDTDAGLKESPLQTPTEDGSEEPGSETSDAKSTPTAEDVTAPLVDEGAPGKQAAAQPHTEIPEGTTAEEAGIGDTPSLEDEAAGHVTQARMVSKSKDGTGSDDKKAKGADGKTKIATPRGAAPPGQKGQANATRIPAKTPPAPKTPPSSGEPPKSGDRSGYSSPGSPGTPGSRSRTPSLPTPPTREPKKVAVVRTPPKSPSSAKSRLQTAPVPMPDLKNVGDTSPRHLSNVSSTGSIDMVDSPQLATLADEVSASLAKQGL
# Sequence of tauΔ306-400 (P10636 other isoform, or with tags, fused parts or gaps mutant): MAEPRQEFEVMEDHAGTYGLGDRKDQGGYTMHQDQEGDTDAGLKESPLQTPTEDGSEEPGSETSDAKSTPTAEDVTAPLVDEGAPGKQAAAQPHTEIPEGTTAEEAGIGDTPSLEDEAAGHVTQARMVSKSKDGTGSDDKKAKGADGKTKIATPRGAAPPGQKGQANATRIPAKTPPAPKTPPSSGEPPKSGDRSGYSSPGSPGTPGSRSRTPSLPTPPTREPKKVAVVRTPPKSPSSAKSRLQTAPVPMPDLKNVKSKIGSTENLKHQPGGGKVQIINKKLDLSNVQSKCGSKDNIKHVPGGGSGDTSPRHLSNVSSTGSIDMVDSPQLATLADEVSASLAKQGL
# Sequence of tauΔ222-427 (P10636 other isoform, or with tags, fused parts or gaps mutant): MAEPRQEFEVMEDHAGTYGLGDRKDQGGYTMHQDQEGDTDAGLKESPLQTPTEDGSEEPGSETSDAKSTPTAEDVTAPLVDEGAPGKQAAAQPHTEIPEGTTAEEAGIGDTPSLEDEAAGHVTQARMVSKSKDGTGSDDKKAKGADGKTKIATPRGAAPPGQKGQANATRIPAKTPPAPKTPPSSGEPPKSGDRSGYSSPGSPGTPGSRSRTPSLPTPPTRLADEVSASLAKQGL
# T5 sequence (P10636 other isoform, or with tags, fused parts or gaps mutant limits assumed): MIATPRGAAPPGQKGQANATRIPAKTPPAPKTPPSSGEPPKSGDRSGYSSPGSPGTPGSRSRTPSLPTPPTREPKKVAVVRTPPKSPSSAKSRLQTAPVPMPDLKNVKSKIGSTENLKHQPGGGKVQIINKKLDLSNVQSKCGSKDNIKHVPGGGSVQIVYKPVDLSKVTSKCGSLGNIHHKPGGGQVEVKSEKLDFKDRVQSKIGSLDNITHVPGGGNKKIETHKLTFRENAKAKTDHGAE
# Sequence of tauΔ137-441 (P10636 other isoform, or with tags, fused parts or gaps mutant): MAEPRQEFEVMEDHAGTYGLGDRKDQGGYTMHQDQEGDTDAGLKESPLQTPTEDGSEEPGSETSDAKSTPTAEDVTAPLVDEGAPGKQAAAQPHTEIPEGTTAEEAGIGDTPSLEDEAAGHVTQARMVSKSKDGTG
# T4 sequence (P10636 other isoform, or with tags, fused parts or gaps limits assumed): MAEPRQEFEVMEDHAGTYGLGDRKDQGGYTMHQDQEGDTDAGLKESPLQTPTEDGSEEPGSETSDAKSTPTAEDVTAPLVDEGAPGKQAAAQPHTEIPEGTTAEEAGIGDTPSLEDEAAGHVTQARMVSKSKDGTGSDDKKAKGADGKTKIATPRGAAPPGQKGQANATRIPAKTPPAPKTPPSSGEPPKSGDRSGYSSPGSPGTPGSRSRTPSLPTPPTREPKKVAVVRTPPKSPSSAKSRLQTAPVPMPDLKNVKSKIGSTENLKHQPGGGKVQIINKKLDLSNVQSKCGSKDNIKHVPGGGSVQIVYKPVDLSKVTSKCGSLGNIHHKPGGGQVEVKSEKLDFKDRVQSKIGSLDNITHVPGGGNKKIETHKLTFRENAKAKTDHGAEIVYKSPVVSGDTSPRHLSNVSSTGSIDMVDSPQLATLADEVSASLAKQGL
# Sequence of tauΔ300-312 (P10636 other isoform, or with tags, fused parts or gaps mutant): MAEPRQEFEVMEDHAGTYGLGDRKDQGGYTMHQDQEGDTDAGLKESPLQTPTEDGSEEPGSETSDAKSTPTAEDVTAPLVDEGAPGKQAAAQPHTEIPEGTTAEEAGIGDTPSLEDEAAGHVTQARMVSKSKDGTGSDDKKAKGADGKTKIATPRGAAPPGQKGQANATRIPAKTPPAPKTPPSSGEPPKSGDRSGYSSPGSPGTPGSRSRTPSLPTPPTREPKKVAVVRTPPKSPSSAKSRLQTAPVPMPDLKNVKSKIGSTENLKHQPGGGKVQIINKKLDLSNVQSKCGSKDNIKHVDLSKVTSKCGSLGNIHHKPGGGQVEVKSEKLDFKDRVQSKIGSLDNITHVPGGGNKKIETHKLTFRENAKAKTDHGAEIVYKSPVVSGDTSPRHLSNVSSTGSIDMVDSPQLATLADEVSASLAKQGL
# T6 sequence (P10636 other isoform, or with tags, fused parts or gaps mutant): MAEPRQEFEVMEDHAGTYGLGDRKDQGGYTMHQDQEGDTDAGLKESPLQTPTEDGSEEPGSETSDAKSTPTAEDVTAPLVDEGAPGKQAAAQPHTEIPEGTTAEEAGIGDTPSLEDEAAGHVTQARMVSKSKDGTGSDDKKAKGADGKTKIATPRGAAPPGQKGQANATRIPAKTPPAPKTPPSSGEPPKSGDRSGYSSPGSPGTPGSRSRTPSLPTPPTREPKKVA
Binder,binding result [1],other results
KHVPGGGSV [peptide KHVPGGGSV],binds,–
HVPGGGSVQ [peptide HVPGGGSVQ],binds,–
IKHVPGGGS [peptide IKHVPGGGS],binds,–
NIKHVPGGGS [peptide NIKHVPGGGS],binds,–
B1,–,binding result [2]: no binding (tested: 40 µM)
ANIKHVPGGGS (Alanine mutant of tau 295-305) [peptide ANIKHVPGGGS],binds,–
DAIKHVPGGGS (Alanine mutant of tau 295-305) [peptide DAIKHVPGGGS],binds,–
DNAKHVPGGGS (Alanine mutant of tau 295-305) [peptide DNAKHVPGGGS],binds,–
DNIAHVPGGGS (Alanine mutant of tau 295-305) [peptide DNIAHVPGGGS],binds,–
DNIKHAPGGGS (Alanine mutant of tau 295-305) [peptide DNIKHAPGGGS],binds,–
B2,–,fold lower kOFF of four-repeat tau species [3]: 10 fold; fold lower kOFF of four-repeat tau species (tauΔ(1-150; 392-441)/4R): 10 fold; binding result (tau peptide 301-330): no binding; binding result (tau peptide 240-270): no binding; binding result (tau peptide 270-300): no binding; binding result (tauΔ222-427): no binding; binding result (tauΔ300-312): no binding; binding result (tauΔ306-400): no binding; binding result (tauΔ228-441): no binding; binding result (tauΔ137-441): no binding; binding result (tauΔ257-400): no binding; binding result (tauΔ283-441): no binding
GWSIHSPGGGSC (Designed peptide) [designer therapeutic epitope 1 GWSIHSPGGGSC],binds,–
SVFQHLPGGGSC (Designed peptide) [designer therapeutic epitope 2 SVFQHLPGGGSC],–,affinity for DC8E8 relative to tauΔ(1-150; 392-441)4R [1]: > 10 fold
TENLKHQPGGGK [tau peptide TENLKHQPGGGK],binds,–
KHVPGGG [tau peptide KHVPGGG],binds,–
KHQPGGG [tau peptide KHQPGGG],binds,–
THVPGGG [tau peptide THVPGGG],binds,–
HQPGGG [tau peptide HQPGGG],binds,–
HKPGGG [tau peptide HKPGGG],binds,–
HVPGGG [tau peptide HVPGGG],binds,–
ENLKHQPGGGKVQIINKKLDLSNVQSKCGSKDNIKHVPGGGS (also called 42-mer) [tau peptide ENLKHQPGGGKVQIINKKLDLSNVQSKCGSKDNIKHVPGGGS],binds,–
DNIKHVPGGGSVQIVYKPV (also called 19-mer) [tau peptide DNIKHVPGGGSVQIVYKPV],binds,–
HHKPGGG [tau peptide HHKPGGG],binds,–
DNIKAVPGGGS (Alanine mutant (H299A) of tau 295-305) [peptide DNIKAVPGGGS],–,binding result [2]: no binding (tested: 160 µM)
HQPGG [tau peptide HQPGG],–,binding result [2]: no binding
HVPGG [tau peptide HVPGG],–,binding result [2]: no binding
QPGGG [tau peptide QPGGG],–,binding result [2]: no binding
VPGGG [tau peptide VPGGG],–,binding result [2]: no binding
